# Measurements as given in patent US20170298096A1 (CANIMGUIDE THERAPEUTICS, published 2017).
# No end group written: not given here.
# B1: P28R D4A (peptide)
# peptide: KKLATFFVKLSLFTER
# B2: P28R E15N (peptide)
# peptide: KKLDTFFVKLSLFTNR
# B3: P28R E15R (peptide)
# peptide: KKLDTFFVKLSLFTRR
# B4: P28R D4L (peptide)
# peptide: KKLLTFFVKLSLFTER
# B5: P28R F6R (peptide)
# peptide: KKLDTRFVKLSLFTER
# B6: P28R F7A (peptide)
# peptide: KKLDTFAVKLSLFTER
# B7: P28R F6L (peptide)
# peptide: KKLDTLFVKLSLFTER
# B8: P28R F6N (peptide)
# peptide: KKLDTNFVKLSLFTER
# B9: P28R E15D (peptide)
# peptide: KKLDTFFVKLSLFTDR
# B10: P28R E15V (peptide)
# peptide: KKLDTFFVKLSLFTVR
# B11: P28R D4Q (peptide)
# peptide: KKLQTFFVKLSLFTER
# B12: P28R D4H (peptide)
# peptide: KKLHTFFVKLSLFTER
# B13: P28R F6E (peptide)
# peptide: KKLDTEFVKLSLFTER
# B14: P28R E15M (peptide)
# peptide: KKLDTFFVKLSLFTMR
# B15: P28R E15T (peptide)
# peptide: KKLDTFFVKLSLFTTR
# B16: P28R F6A (peptide)
# peptide: KKLDTAFVKLSLFTER
# B17: P28R E15L (peptide)
# peptide: KKLDTFFVKLSLFTLR
# B18: P28R F6D (peptide)
# peptide: KKLDTDFVKLSLFTER
# B19: P28R D4R (peptide)
# peptide: KKLRTFFVKLSLFTER
# B20: P28R E15K (peptide)
# peptide: KKLDTFFVKLSLFTKR
# B21: P28R F6K (peptide)
# peptide: KKLDTKFVKLSLFTER
# B22: P28R F6M (peptide)
# peptide: KKLDTMFVKLSLFTER
# B23: P28R E15Q (peptide)
# peptide: KKLDTFFVKLSLFTQR
# B24: P28R D4K (peptide)
# peptide: KKLKTFFVKLSLFTER
# B25: P28R E15I (peptide)
# peptide: KKLDTFFVKLSLFTIR
# B26: P28R F7E (peptide)
# peptide: KKLDTFEVKLSLFTER
# B27: P28R E15F (peptide)
# peptide: KKLDTFFVKLSLFTFR
# B28: P28R E15W (peptide)
# peptide: KKLDTFFVKLSLFTWR
# B29: P28R E15H (peptide)
# peptide: KKLDTFFVKLSLFTHR
# B30: P28R E15Y (peptide)
# peptide: KKLDTFFVKLSLFTYR
# B31: P28R F6Q (peptide)
# peptide: KKLDTQFVKLSLFTER
# B32: P28R E15A (peptide)
# peptide: KKLDTFFVKLSLFTAR
# B33: P28R E15S (peptide)
# peptide: KKLDTFFVKLSLFTSR
# B34: P28R F6Y (peptide)
# peptide: KKLDTYFVKLSLFTER
# B35: P28R D4E (peptide)
# peptide: KKLETFFVKLSLFTER
# B36: P28R F6T (peptide)
# peptide: KKLDTTFVKLSLFTER
# B37: P28R D4M (peptide)
# peptide: KKLMTFFVKLSLFTER
# B38: P28R F6H (peptide)
# peptide: KKLDTHFVKLSLFTER
# B39: P28R F6W (peptide)
# peptide: KKLDTWFVKLSLFTER
# B40: P28R D4F (peptide)
# peptide: KKLFTFFVKLSLFTER
# B41: P28R D4T (peptide)
# peptide: KKLTTFFVKLSLFTER
# B42: P28R D4N (peptide)
# peptide: KKLNTFFVKLSLFTER
# B43: P28R D4W (peptide)
# peptide: KKLWTFFVKLSLFTER
# B44: P28R F6I (peptide)
# peptide: KKLDTIFVKLSLFTER
# B45: P28R F6S (peptide)
# peptide: KKLDTSFVKLSLFTER
# B46: P28R D4I (peptide)
# peptide: KKLITFFVKLSLFTER
# B47: P28R D4V (peptide)
# peptide: KKLVTFFVKLSLFTER
# B48: P28R F6V (peptide)
# peptide: KKLDTVFVKLSLFTER
# B49: P28R D4S (peptide)
# peptide: KKLSTFFVKLSLFTER
# B50: P28R D4Y (peptide)
# peptide: KKLYTFFVKLSLFTER
# B51: P28R F7D (peptide)
# peptide: KKLDTFDVKLSLFTER
# B52: SEQ ID NO 513 (peptide)
# peptide: KKLDTFFQKLSLFTER
# B53: SEQ ID NO 524 (peptide)
# peptide: KKLDTFFVKLSLFTMR
# B54: SEQ ID NO 519 (peptide)
# peptide: KKLDTFFCKLSLFTER
# B55: SEQ ID NO 532 (peptide)
# peptide: KKLDTFFVKLELFTER
# B56: SEQ ID NO 517 (peptide)
# peptide: KKLDTFFVKLSLFKER
# B57: SEQ ID NO 531 (peptide)
# peptide: KKLDTFFVKLSLFTRR
# B58: SEQ ID NO 514 (peptide)
# peptide: KKLDTFFVKLSLFYER
# B59: SEQ ID NO 526 (peptide)
# peptide: KKLDTFFVWLSLFTER
# B60: SEQ ID NO 527 (peptide)
# peptide: KKLDTFFVELSLFTER
# B61: SEQ ID NO 525 (peptide)
# peptide: KKLDTFFVKLSLFTLR
# B62: SEQ ID NO 528 (peptide)
# peptide: KKLDTFFVKLSLFTEH
# B63: SEQ ID NO 515 (peptide)
# peptide: KKLGTFFVKLSLFTER
# B64: SEQ ID NO 530 (peptide)
# peptide: KKLDKFFVKLSLFTER
# B65: SEQ ID NO 520 (peptide)
# peptide: KKLDTFFVKLSLFCER
# B66: SEQ ID NO 518 (peptide)
# peptide: KKLDTFFVNLSLFTER
# B67: SEQ ID NO 529 (peptide)
# peptide: KKLDTFFVKLSLFTEM
# B68: SEQ ID NO 521 (peptide)
# peptide: KKLDTFFVKLSLFTEV
# B69: SEQ ID NO 522 (peptide)
# peptide: KKLDTFFVKLFLFTER
# B70: SEQ ID NO 523 (peptide)
# peptide: KKLDTFFVVLSLFTER
# Target: T1, His-tagged P3028 (human, not fully specified)
# T1 construct: the tag is put first after 'PGE73=His-tag-P3028'; also called PGE73; not shown: His-tag
# T1 peptide: {His‑tag}-VFDEFKPLVEEPQNLIK
# Test: chip ELISA
row,Binder,ELISA signal
1,B1,494
2,B2,161
3,B3,237
4,B4,303
5,B5,309
6,B6,426
7,B7,408
8,B8,446
9,B9,404
10,B10,163
11,B11,345
12,B12,317
13,B13,229
14,B14,247
15,B15,152
16,B16,575
17,B17,246
18,B18,193
19,B19,317
20,B20,324
21,B21,309
22,B22,467
23,B23,344
24,B24,274
25,B25,163
26,B26,381

row,Binder,ELISA signal
1,B27,137
2,B28,226
3,B29,318
4,B30,340
5,B31,410
6,B32,174
7,B33,165
8,B34,364
9,B35,417
10,B36,481
11,B37,384
12,B38,332
13,B39,348
14,B40,380
15,B41,405
16,B42,296
17,B43,443
18,B44,466
19,B45,432
20,B46,430
21,B47,424
22,B48,547
23,B49,344
24,B50,422
25,B51,301

# Target: T2, His-tagged P3028 (human, also: His-tag, terminus and sequence not given here)
# T2 construct: in solution at 0.5 ug/mL over the peptide cards; found with anti-His-tag antibody and rabbit anti-mouse peroxidase (rampo); also called PGE73; not shown: His-tag
# T2 peptide: VFDEFKPLVEEPQNLIK
# Test: PEPSCAN chip ELISA, His-P3028 in solution;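 further: score is the raw OD at 405 nm from peroxidase colour with ABTS, imaged by CCD camera before and after staining, with wells showing air bubbles set to zero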
row,Binder,RAMPO Score
1,B52,271 rampo score
2,B53,247 rampo score
3,B54,254 rampo score
4,B55,234 rampo score
5,B56,259 rampo score
6,B57,237 rampo score
7,B58,270 rampo score
8,B59,245 rampo score
9,B60,240 rampo score
10,B61,246 rampo score
11,B62,239 rampo score
12,B63,264 rampo score
13,B64,237 rampo score
14,B65,254 rampo score
15,B66,256 rampo score
16,B67,238 rampo score
17,B68,254 rampo score
18,B69,250 rampo score
19,B70,248 rampo score
